Measurements: patent US20030185792A1, “Morphogen analogs of bone morphogenic proteins” (Curis, Inc., priority 1996, published 2003)

T1: ECD of DAF-4 (Caenorhabditis elegans, UniProt P50488)
T1 construct: highly purified ECD of DAF-4 as type II receptor
T1 sequence (P50488 48-253 limits assumed): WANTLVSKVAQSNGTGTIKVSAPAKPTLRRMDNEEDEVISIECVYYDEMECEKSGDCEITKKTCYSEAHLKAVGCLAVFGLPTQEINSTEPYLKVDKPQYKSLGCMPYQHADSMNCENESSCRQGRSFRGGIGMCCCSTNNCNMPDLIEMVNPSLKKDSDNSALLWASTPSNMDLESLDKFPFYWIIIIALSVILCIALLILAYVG

T2: DAF-4 ECD (Caenorhabditis elegans, UniProt P50488)
T2 construct: highly purified ECD of DAF-4 as type II receptor
T2 sequence (P50488 48-253 limits assumed): T1 sequence (P50488 48-253 limits assumed)

B1: OP-1: osteogenic protein-1, a tissue morphogenic protein of the TGF-β superfamily; mature human OP-1 is SEQ ID No. 4 (protein, listed as Homo sapiens)
chain: CKKHELYVSFRDLGWQDWIIAPEGYAAYYCEGECAFPLNSYMNATNHAIVQTLVHFINPETVPKPCCAPTQLNAISVLYFDDSSNVILKKYRNMVVRACGCH

Columns and labels:
ECD of DAF-4 = molecular target: T1, ECD of DAF-4; test: Type II receptor-based rapid solid phase assay; type: binding; settings: for inhibition of 125I-labeled OP-1 binding to the ECD of DAF-4: excess unlabeled competitor, FIG. 20
Description: iii. Type H Receptor-based rapid solid phase assay: OP-1 binding activity, and that of various synthetic peptides, may be determined by a rapid solid-phase assay using 125I-labeled OP-1 as ligand and highly purified ECD of DAF-4 as type II receptor. In a typical assay, ˜1 μg of ECD of DAF-4 receptor (R) is dissolved in 20 μl of 50 mM PBSA, pH 7.4 and immobilized on PVDF membranes (Immobilon-P) by using a slot-blot apparatus (VacuSlot-VS). A similarly immobilized polyclonal anti-OP-1 antibody (diluted Ab) has served as positive control, while bovine serum albumin (globulin free) and unrelated receptor ECD have served as negative controls in this assay. The receptor-containing membranes are incubated in 50 mM HEPES buffer, pH 7.4 containing 3% bovine serum albumin (BSA) for 14 h, in cold (4° C.), to block excess protein binding sites on the membrane. The blocking buffer is then replaced with 50 mM HEPES, pH 7.4 containing 0.5% BSA, 10 mM MgCl2 and 1 mM CaCl2, and the receptor-containing membranes are further incubated with ^125I-labeled OP-1 (˜400,000 cpm/ml) in the presence or absence of excess unlabeled OP-1 or test peptide for 18 h, with slow shaking at room temperature. Finally, the membranes are washed four times with 50 mM HEPES buffer, pH 7.4 containing 5 mM MgCl2 and 1 mM CaCl2, air dried and ^125I kept for autoradiography overnight.
Initial binding experiments were carried out to examine the role of the finger 2 region (Leu109-Arg129) of OP-1 in the interaction of OP-1 with the type II receptor. Incubation of DAF4 with radioiodinated OP-1 was done in the presence (a) and absence (b) of synthetic peptide (F2-3) corresponding to the indicated finger 2 region of OP-1. In parallel, immobilized receptor was incubated with radioiodinated OP-1 in the presence of unlabeled OP-1 which served as a positive control. […] These initial results thus identify that the finger 2 region (Leu109-Arg129) of OP-1 is likely a contact region in the interaction of OP-1 with the type II receptor.

ROS cell receptor = test: Type II receptor-based ligand blot, ROS cell receptor; type: binding, rat; settings: FIG. 21
Description: (§1) iv. Type II receptor-based ligand-blot technique: A ligand blot method can be used to characterize OP-1 binding properties of highly purified DAF4 ECD and ROS cell receptor. Peptides are analyzed by this method to determine their ability to interact with type II receptor, based on their ability to inhibit ^125I-labeled OP-1 binding to the receptor. In a typical experiment, receptor-enriched ROS cell plasma membrane fraction or purified DAF-4 ECD is treated with SDS (final concentration 1.6%, w/v) in the presence of 17% glycerol on ice, as is known in the art, and subjected to SDS-PAGE under non-reducing conditions and without prior heating of the samples, according to the procedure of Laemmli. Receptor samples are electrophoressed at 35 mA and 4° C., in gradient (5-8% or 5-10%, w/v) acrylamide separating gels. Pre-stained markers of known MW, are used as standards. After SDS-PAGE, the resolved proteins from acrylamide gels are transblotted onto PVDF membranes (Immobilon-P transfer membranes) using an Pharmacia-LKB 2005 Transphor Unit, at constant current (0.2 A) and 4° C., for 16 h. Ligand blotting is carried out as follows. […]

DAF-4 ECD = molecular target: T2, DAF-4 ECD; test: Type II receptor-based ligand blot, DAF-4 ECD; type: binding; settings: FIG. 22
Description: as §1

| Molecule | binding to ECD of DAF-4 (ECD of DAF-4; FIG. 20 legend) | inhibition of 125I-labeled OP-1 binding to the ECD of DAF-4 (ECD of DAF-4) | binding of 125I-labeled OP-1 to ROS cell receptor (ROS cell receptor) | binding of 125I-labeled OP-1 to DAF-4 ECD (DAF-4 ECD) |
| --- | --- | --- | --- | --- |
| F2-3: SEQ ID No. 19; 16 residues, finger 2 tip 11-residue loop with 5-residue C-terminal extension (CYFDDSSNVICKKYRS; listed as Homo sapiens) | binds to ECD of DAF-4 | 75% | – | – |
| B1 | – | 78% | specifically binds | OP-1 binding to two closely migrated receptor components |
